pKd: −log10 of the molar value.
Legend:
[1] = biological target: SARS-CoV-2 RBD protein (321–591) (SARS-CoV-2) (UniProt P0DTC2); test: SPR
[2] = biological target: SARS-CoV-2 RBD protein (321–591) (SARS-CoV-2) (UniProt P0DTC2)

P2B-2F6 (antibody)
pKd [1]: 9.09
other [2]: 37.5 µg/mL

— article PMC8442604
